For 35 molecules, Kd results are on record in patent US20240092930A1 (MABWELL SHANGHAI BIOSCIENCE, published 2024).

Positions count from the first letter of the chain named.

Sequences and labels used below:
B1: h23-12-42 (antibody, human IgG1, kappa, V domains shown)
VH: QVQLVQSGAEVKKPGASVKVSCKASGYTFTSYWMHWVRQAPGQGLEWMGEITPSDNYTSYNQKFKGRVTITRDTSTSTAYMELSSLRSEDTAVYYCARGQGNYVSFDYWGQGTLVTVSS
VL: DIQMTQSPSSLSASVGDRVTITCRASQDISNYLNWYQQKPGKAPKLLIYYTSRLHSGVPSRFSGSGSGTDFTLTISSLQPEDFATYFCQQYYTLPPYTFGQGTKLEIKR
B2: h23-12-45 (antibody, human IgG1, kappa, V domains shown)
VH: B1 VH with N56G, Q100H
VL: B1 VL with Y91G, T93S
B3: h23-12-44 (antibody, human IgG1, kappa, V domains shown)
VH: B1 VH with S54G, Q100H
VL: B1 VL with Y91G, T93S
B4: h23-12-43 (antibody, human IgG1, kappa, V domains shown)
VH: B1 VH with Q100H
VL: B1 VL with Y91G, T93S
B5: h23-12-48 (antibody, human IgG1, kappa, V domains shown)
VH: B1 VH with Q100E
VL: B1 VL with Y91G, T93S
B6: h23-12-47 (antibody, human IgG1, kappa, V domains shown)
VH: B1 VH with N61A, Q100H
VL: B1 VL with Y91G, T93S
B7: h23-12-49 (antibody, human IgG1, kappa, V domains shown)
VH: B1 VH
VL: B1 VL with Y91G, T93S
B8: h23-12-46 (antibody, human IgG1, kappa, V domains shown)
VH: B1 VH with T58G, Q100H
VL: B1 VL with Y91G, T93S
B9: h4-3-2 (antibody, human IgG1, kappa, V domains shown)
VH: EVQLVQSGPEVKKPGASVKVSCKASGFTFTDYVIGWVRQAPGQGLEWIGEIYLGSGTIYYAEKFKGRVTMTADTSTSTAYMELSSLRSEDTAVYYCARGSIFPFDYWGQGTLVTVSS
VL: DIQLTQSPSSLSASVGDRVTITCSASSSVSYMYWYQQKPGKAPKLLIYDTSTLASGVPSRFSGSGSGTDFTLTISSLQPEDFATYYCQQWSSYPYTFGQGTKLEIKR
B10: h4-3-8 (antibody, human IgG1, kappa, V domains shown)
VH: B9 VH with A61T, P103Y
VL: B9 VL with S24R
B11: h4-3-7 (antibody, human IgG1, kappa, V domains shown)
VH: B9 VH with A61T, E62Q
VL: B9 VL with S24R
B12: h4-3-13 (antibody, human IgG1, kappa, V domains shown)
VH: B9 VH with A61T
VL: B9 VL with A54Q
B13: h4-3-10 (antibody, human IgG1, kappa, V domains shown)
VH: B9 VH
VL: B9 VL with T50A
B14: h4-3-4 (antibody, human IgG1, kappa, V domains shown)
VH: B9 VH with A61T, P103Y
VL: B9 VL
B15: h4-3-20 (antibody, human IgG1, kappa, V domains shown)
VH: B9 VH with A61T, P103Y
VL: B9 VL with S91N
B16: h4-3-3 (antibody, human IgG1, kappa, V domains shown)
VH: B9 VH with A61T, E62Q
VL: B9 VL
B17: h4-3-17 (antibody, human IgG1, kappa, V domains shown)
VH: B9 VH with A61T
VL: B9 VL with S91N
B18: h4-3-16 (antibody, human IgG1, kappa, V domains shown)
VH: B9 VH with A61T, P103Y
VL: B9 VL with A54Q
B19: h4-3-18 (antibody, human IgG1, kappa, V domains shown)
VH: B9 VH
VL: B9 VL with S91N
B20: h4-3-11 (antibody, human IgG1, kappa, V domains shown)
VH: B9 VH with A61T, E62Q
VL: B9 VL with T50A
B21: h4-3-6 (antibody, human IgG1, kappa, V domains shown)
VH: B9 VH
VL: B9 VL with S24R
B22: h4-3-14 (antibody, human IgG1, kappa, V domains shown)
VH: B9 VH
VL: B9 VL with A54Q
B23: h4-3-19 (antibody, human IgG1, kappa, V domains shown)
VH: B9 VH with A61T, E62Q
VL: B9 VL with S91N
B24: h4-3-12 (antibody, human IgG1, kappa, V domains shown)
VH: B9 VH with A61T, P103Y
VL: B9 VL with T50A
B25: h4-3-5 (antibody, human IgG1, kappa, V domains shown)
VH: B9 VH with A61T
VL: B9 VL with S24R
B26: h4-3-9 (antibody, human IgG1, kappa, V domains shown)
VH: B9 VH with A61T
VL: B9 VL with T50A
B27: h4-3-15 (antibody, human IgG1, kappa, V domains shown)
VH: B9 VH with A61T, E62Q
VL: B9 VL with A54Q
B28: h11-4-1 (antibody, human IgG1, kappa, V domains shown)
VH: QVQLVQSGAEVKKPGASVKVSCKASGYTFTSYWINWVRQAPGQGLEWMGNIYPSNSYTNYNQKFKDRVTMTRDTSTSTVYMELSSLRSEDTAVYYCARYRSDGFAYWGQGTLVTVSS
VL: EIVLTQSPATLSLSPGERATLSCRASQNIGTSIHWYQQKPGQAPRLLIYFASESISGIPARFSGSGSGTDFTLTISSLEPEDFAVYYCQQSNSWPFTFGGGTKVEIKR
notes: also called CDR grafted antibody 11-4
B29: h11-4-3 (antibody, human IgG1, kappa, V domains shown)
VH: B28 VH with R98S
VL: B28 VL
B30: h11-4-6 (antibody, human IgG1, kappa, name in Kabat numbering, V domains shown)
VH: B28 VH with A97S
VL: B28 VL with Y49E
B31: h11-4-2 (antibody, human IgG1, kappa, V domains shown)
VH: B28 VH with A97S
VL: B28 VL
B32: h11-4-5 (antibody, human IgG1, kappa, name in Kabat numbering, V domains shown)
VH: B28 VH
VL: B28 VL with Y49E
B33: h11-4-7 (antibody, human IgG1, kappa, name in Kabat numbering, V domains shown)
VH: B28 VH with R98S
VL: B28 VL with Y49E
B34: h11-4-8 (antibody, human IgG1, kappa, name in Kabat numbering, V domains shown)
VH: B28 VH with Q1E, A97S, R98S
VL: B28 VL with Y49E
B35: h11-4-4 (antibody, human IgG1, kappa, V domains shown)
VH: B28 VH with Q1E, A97S, R98S
VL: B28 VL

For the first experiment, the target named is T1, recombinant human Trop-2-his protein (ACCESSION NO.: NP_002344.2, AA 1-274) (human, UniProt P09758 27-274).
T1 construct: range 27-274; also called recombinant human Trop-2 protein; recombinant human Trop-2 extracellular domain; not shown: his tag
T1 sequence (looked up): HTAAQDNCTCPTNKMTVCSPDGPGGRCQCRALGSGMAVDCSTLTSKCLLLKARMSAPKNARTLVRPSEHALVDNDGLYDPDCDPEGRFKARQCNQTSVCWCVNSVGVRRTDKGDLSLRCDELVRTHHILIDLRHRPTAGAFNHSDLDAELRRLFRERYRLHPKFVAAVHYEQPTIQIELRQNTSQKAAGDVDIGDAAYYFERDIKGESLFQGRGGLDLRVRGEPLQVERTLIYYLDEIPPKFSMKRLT
Put plainly: BLI, antibody on AHC sensor, Trop-2-his 60 nM. How it is done: (§1) 5-6 days after cell transfection, culture supernatants were purified through ProA affinity chromatography column to obtain different humanized antibodies. Affinities of the obtained antibodies were determined by an assay including capturing Fc fragments of the antibodies with anti-human IgG Fc capture (AHC) biosensors using Octet QKe system instrument from Fortebio. For the assay, each of the humanized antibodies and control antibody Sacituzumab was diluted to 4 μg/ml in PBS, and was allowed to flow through the surface of an AHC biosensor (Cat.: 18-0015, PALL) for 120 s. Recombinant human Trop-2-his protein (ACCESSION NO.: NP_002344.2, AA 1-274) was used as a mobile phase, and its concentration was 60 nM. The binding time was 100 s and the dissociation time was 300 s. When the assay was finished, data from which the response values of blank control had been deducted were fitted to a 1:1 Langmuir binding model using software, and then kinetic constants for antigen-antibody binding were calculated.
Affinities of the antibodies obtained from the combinations of mutants of murine antibody 23-12, chimeric antibody ch23-12 and control antibody Sacituzumab to recombinant human Trop-2-his protein were determined by ForteBijo (Table 5).
On the technique in general: Biolayer interferometry detects binding as a change in optical thickness at a sensor tip.
In the case of B1, the Kd (usually the concentration at which binding is half-saturated) came to 3.09 nM. The same measure, in the same setting: the same measure for B2: 4.09 nM; for B3: 0.717 nM. On the same count and under the same terms, the same measure for B4: 0.98 nM; for B5: 0.405 nM.

As for B6, the Kd worked out at 2.31 nM. For the molecule B7, the dissociation constant Kd was 2.99 nM. As to B8, the equilibrium dissociation constant (Kd) was 0.312 nM.

The next experiment deals with T1, recombinant human Trop-2-his protein …. Put plainly: BLI, antibody on AHC sensor, Trop-2-his 60 nM. This is another data set of the same source. How it is done: as §1
Affinities of the antibodies obtained from the combinations of mutants of murine antibody 23-12, chimeric antibody ch4-3 and control antibody Sacituzumab to recombinant human Trop-2-his protein were determined by ForteBio (Table 8).
With B9, the Kd is 0.411 nM.

Regarding B10, the Kd came to 0.862 nM. As for B11, the Kd was found to be 0.466 nM. For B12, the dissociation constant (Kd) was determined as 0.281 nM.

As for B13, the equilibrium dissociation constant (Kd) was 0.763 nM. For the molecule B14, the Kd was 0.636 nM. On to B15, for which the Kd came out at 0.892 nM.

Consider B16, for which the Kd was determined as 0.501 nM.

Take B17: the dissociation constant Kd came out at 0.542 nM.

Take B18: the dissociation constant Kd came to 1.53 nM. With B19, the Kd turned out to be 0.671 nM. For the molecule B20, the Kd was 0.802 nM. Take B21: the Kd was determined as 0.397 nM. On the same count and under the same terms, the same measure for B22: 0.571 nM.

For the molecule B23, the Kd turned out to be 0.599 nM. Regarding B24, the Kd was 1.03 nM.

Turning to B25, the Kd amounted to 0.273 nM. The same measure, in the same setting: the same measure for B26: 0.317 nM. Same read-out and setting: the same measure for B27: 0.687 nM.

The target is the same in the next experiment. The experiment in a line: BLI, antibody on AHC sensor, Trop-2-his 60 nM. This is another data set of the same source. On the procedure: as §1
Affinities of the antibodies obtained from the combinations of mutants of murine antibody 11-4, chimeric antibody ch11-4 and control antibody Sacituzumab to recombinant human Trop-2-his protein were determined by ForteBio (Table 11).
Regarding B28, the Kd came to 2.16 nM. With B29, the Kd was 0.868 nM. The same measure, in the same setting: the same measure for B30: 0.952 nM; for B31: 0.991 nM; for B32: 1.08 nM. Still for that read-out and setting: to B33 belongs 0.803 nM; to B34, 0.222 nM. In the case of B35, the Kd was 0.811 nM.
